These results are taken from patent US20060094649A1 (published 2006).

In test [1] the target is HLA-A*3101 (human). Briefly: competition vs 125I probe, purified HLA.
Test [2] addresses HLA-B*4403 (human). Briefly: competition vs labelled reference peptide on HLA class I.
Test [3] deals with HLA-B*1801 (human). The test is described as follows: competition with labeled probe peptide, purified HLA class I.
Test [4] concerns the target HLA-B*4403 (human). The test is described as above.
Test [5] addresses HLA-A*3301 (human). The test is described as follows: competition vs 125I probe, purified HLA.
For test [6], the target named is HLA-B*4501 (human). The test is described as follows: competition vs labelled reference peptide on HLA class I.
Test [7] concerns the target HLA-B*4403 (human). The test is described as follows: competitive inhibition of labeled probe peptide, purified HLA.

Non-standard residues stand in square brackets, D forms with d. No end group written: not given here. Abu = CC[C@H](N)C(=O)O

In the case of SS[Abu]MGGMNRK [p53.240.B3K10], in test [1], the IC50 came out at 720 nM.

On to GEGLACHQLCA [GEGLACHQLCA (Her2/neu position 506, 11-mer)], for which the IC50 in test [2] is 2.7 nM.

Take LESEFQAAL [LESEFQAAL (MAGE3, position printed 301)]: the IC50 in test [3] was found to be 5.4 nM.

The molecule PEEGLEARGEA [PEEGLEARGEA (MAGE2, position 12)] displayed an IC50 in test [4] of 950 nM.

Take [Abu]VYSPALNR [p53.124.B1V2R9]: the IC50 in test [5] came to 85 nM.

Molecule EEGACQPCPI [EEGACQPCPI (Her2/neu position 619, 10-mer)] yielded an IC50 in test [6] of 401 nM.

In the case of SV[Abu]MGGMNK [p53.240.V2B3K9], the half-maximal inhibitory concentration (IC50) in test [1] was determined as 9000 nM.

In test [7], SEYLQLVFGIEVV [MAGE2 155 SEYLQLVFGIEVV] came in with an IC50 of 7.6 nM.

The term IC50 denotes the concentration at which inhibition is half-maximal. High values mean weaker potency in that assay, low ones greater potency in that assay.
